The nature of the series: N-acetyl-β-amino acid acylase activity and optical selectivity of purified enzymes and cell-free extracts. In kind it is biochemical. The note with it: 30° C.; for Specific activity: purified enzyme after Mono-Q, 10 mM N acetyl-(R,S)-β-Phe, 50 mM Tris-HCl (pH 7.6); for Optical specificity (β-Phe enantiomer produced): purified enzyme, N-acetyl-(R,S)-β-Phe, 30 minutes. The procedure: 10 mM N acetyl-(R,S)-β-Phe, 50 mM Tris-HCl (pH 7.6), and a reaction solution containing a suitable enzyme sample were left standing from 15 minutes to 2 hours at 30° C., and then processed by boiling for 5 minutes to stop the reaction. The reaction solution was centrifuged. The supernatant was suitably diluted and then analyzed by HPLC. Acylase activity that produced 1 μmol of (R)-β-Phe or (S)-β-Phe per minute under these standard reaction conditions was defined as one unit. Activity producing (R)-β-Phe from N-acetyl-(R,S)-β-Phe will be referred to as N-acetyl-(R)-β-Phe acylase activity and activity producing (S)-β-Phe will be referred to as N-acetyl-(S)-β-Phe acylase activity hereinafter.
(R)-β-Phe, (S)-β-Phe, N-acetyl-(R)-β-Phe, and N-acetyl-(S)-β-Phe were quantitatively analyzed. The column employed was an Inertsil ODS3 (0.46 cm in diameter, 5 cm) made by GL Science and a Chiralpak WH (0.46 cm in diameter, 25 cm) made by Daisel Chemical Industries, arranged consecutively in that order. The mobile phase was 0.25 mM CuSO4, 2 percent (v/v) acetonitrile. The flow rate was 1.5 mL/minute. The column temperature was 50° C. Detection was conducted with a UV detector at 210 nm. In this analysis, the above four compounds eluted out at different elution times. The elution sequence, in order of elution speed, was (S)-β-Phe, (R)-β-Phe, N-acetyl-(R)-β-Phe, and N-acetyl-(S)-β-Phe. The quantities were calculated from the peak area values relative to various standard products.
An Inertsil Ph-3 (0.46 cm in diameter, 25 cm) column made by GL Science was employed. The mobile phase was 10 percent acetonitrile (adjusted to pH 3.0 with phosphoric acid). The temperature was 40° C. The flow rate was 1.0 mL/min. Detection was conducted under UV conditions of 210 nm and peak area values were calculated based on comparison with various standard racemic products.
Optical selectivity was measured using the purified enzymes as enzyme sources. Reactions were conducted under the above enzyme conditions for a period of 30 minutes. The quantity of enzyme added was 4.6 μg/mL (N-acetyl-(R)-β-amino acid acylase) or 3.1 μg/mL (N-acetyl-(S)-β-amino acid acylase).
The K83 strain obtained was precultured for 16 hours at 37° C. in LB medium containing 100 mg/L of ampicillin. A 1 mL quantity of the cultured bacterial cells was transferred to 50 mL of TB medium containing 100 mg/L of ampicillin and 1 mM of IPTG and cultured for 16 hours at 30° C. […] When the N-acetyl-β-amino acid acylase activity was measured under the separation conditions of N-acetyl-β-Phe and β-Phe, a value of 2.3 U/mg was obtained.
JM109/ptrp4—3BR was cultured for 16 hours at 37° C. in LB medium containing 100 mg/L of ampicillin. […] The quantity of β-Phe produced was measured by HPLC. […]

B1: N-acetyl-(R)-β-amino acid acylase: enzyme purified from Burkholderia sp. AJ110349, subunit about 84 kDa, SEQ. ID. NO. 8 (protein)
chain: MITITGYSDVLSAGPGETVEFKVSSKSPHPFTAELVRVIHADPNPAGPGMRFEPLGQVFSGTFASFDKPLLPGSFARVSGVPAAGSAAGLVAGARIRPTALARGDQCVMSQWNTARHAGFALLVSERGLELRLGAGTGEPPVCVLCAARLEVRWYDVWFAIDTASNRIEVGVTEVDGSVAAPVRHRTLQMLDARWRAPHSDDAADLLIGALEDGAGRRAHFNGQIEAPFVADALPSPATPAATVEYAAPRASDFSTDALYAAWDFARGIDTLKIADTTPHARHGTLQNLPTRAVRSSAWNGRERCWRTAPAHYAAIHFHDDDLHDAGWSTDFAFTVPATLKSGAYAMRLSVDGATDYLPFYVRPELGRPGAPLVFVAATYTYQAYANYARGNFDAALRDKVGRWGAYPHNPDDHPEVGLATYNLHSDGSGVMFSSRLRPMLTMRPGFLTFDDSRGSGCRHYIADSHLLDWLEHEGFSFDVVTDDDLERFGAALLEPYAAVLTGTHPEYHTAATLDALAGYKRSGGNLAYLGGNGFYWRVGRSERVPGALEVRRTEGGVRAWAAEAGEYFHALDGEYGGLWRSSARTPQQLVGVGFSSQGPFEGSHYRVLDAARSQPGGSLLKDIAGPLFGGYGLSGGGAAGFELDSTEAADGTPANVIILARSESHSAAFGPALDALLSHTATRARKTPDTLIRSEIVYYETGYGGAVFSVGSITFCGALSHNDYRNDVSTLLRNVLIRFSRDRGAQAHAVPAVAHTEVD
modifications: Burkholderia sp. AJ110349
Regarding B1, the Specific activity was determined as 12.4 U/mg and the “Optical specificity (β-Phe enantiomer produced)” value was “only the production of (R)-β-Phe was observed”.

B2: N-acetyl-(S)-β-amino acid acylase: enzyme purified from Burkholderia sp. AJ110349, subunit about 41 kDa, SEQ. ID. NO. 10 (protein)
chain: MDFCQMNDLASRKGRIQTVLGLIDPHELGPALMHEHLLIDLVPPKLAEDADHDQTEIDLCNCWKINYGQVPSLKNYRLDQKDVAVEELLEMRAAGGSAIVDLTTGGLKPDPQGLAQISREAGVHVVMGCGHYVHEYQDAANAHRSVDDFASEMIGQITEGAWGTQVRAGIIGEIGCQSPWTEQEKRVVRGALIAQQETGAALNIHPGRHAEQPQEVIDTIKSLGYPVERVIISHIDRTIFDDTRLLRLADSGCVIELDLFGWEQSAYPMSDIDMPNDGARLRMVRTLLDHGHAERVLISHDICTRTRLGRYGGHGYQHIFANVVPRMLRRDFTQDEIDTLLTRNPRRLLTFV
modifications: Burkholderia sp.AJ110349
notes: enzyme purified from Burkholderia sp; ID; NO; 10
For B2, the Specific activity is 13.1 U/mg and the “Optical specificity (β-Phe enantiomer produced)” value is listed as “Only the production of (S)-β-Phe was observed”.

Values taken from patent US7858348B2, “N-acetyl-(R,S)-beta-amino acid acylase gene” (Ajinomoto Co., Inc., priority 2006, dated 2010).
